Our source for the Kd values is publication PMC9445180.

In this experiment the target is HTRA1^PD + 7-mer ABP (purified covalent complex of HTRA1^PD and biotin-DPMFKLV-phosphonate) (human) (UniProt Q92743). Put plainly: SPR; His6-tagged HTRA proteins (about 200 RU) captured with the His-capture kit on a CM5 chip, Fab15H6.v4 as analyte, single-cycle kinetics, three-fold dilutions from 1 nM or 1 μM; absence of binding verified with 3 μM Fab; Biacore S200, 25 °C, HBS-EP; 1:1 Langmuir model. A general note: In SPR one partner is held on a chip, and binding of the other changes the refractive index at the surface.
Sequence of HTRA1^PD + 7-mer ABP (purified covalent complex of HTRA1^PD and biotin-DPMFKLV-phosphonate) (human) (Q92743 161-379, one chain of several): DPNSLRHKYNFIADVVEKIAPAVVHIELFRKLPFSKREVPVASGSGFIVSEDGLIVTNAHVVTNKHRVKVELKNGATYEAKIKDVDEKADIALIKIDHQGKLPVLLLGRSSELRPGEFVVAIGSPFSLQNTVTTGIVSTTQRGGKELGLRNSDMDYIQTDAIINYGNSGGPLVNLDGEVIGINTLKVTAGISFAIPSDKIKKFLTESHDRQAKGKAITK

B1: Fab15H6.v4 (Fab, V domains shown)
VH: EVQLVQSGAEVKKPGASVKVSCKASGYKFTDSEMHWVRQAPGQGLEWIGGVDPETEGAAYNQKFKGRATITRDTSTSTAYLELSSLRSEDTAVYYCTRGYDYDYALDYWGQGTLVTVSS
VL: DIQMTQSPSSLSASVGDRVTITCRASSSVEFIHWYQQKPGKAPKPLISATSNLASGVPSRFSGSGSGTDFTLTISSLQPEDFATYYCQQWSSAPWTFGQGTKVEIK
In the case of B1, the dissociation constant (Kd) amounted to 0.21 nM.

For orientation: Kd means the concentration at which binding is half-saturated.
